Experimental findings from a protein production outcome set (Wang et al. 2014) are described below.
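Also: failed if final PepcDB status was selected cloned or expressed and not failed if soluble or beyond.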

The nature of the data set: label from the status in PepcDB records.
For the sequence “MQTSNITNHERNDSSWMSTVKSTTEVSWNKLSFCDILLKIITFGIYSPHETLAEKHSEKKLMDSFSPSLSQDKMDGEFAHANIDGISIRLCLNKGICSVFYLDGDKIQSTQLSSKEYNNLLSSLPPKQFNLGKVHTITAPVSGNFKTHKPAPEVIETAINCCTSIIPNDDYFHVKDTDFNSVWHDIYRDIRASDSNSTKIYFNNIEIPLKLIADLINELGINEFIDSKKELQMLSYNQVNKIINSNFPQQDLCFQTEKLLFTSLFQDPAFISALTSAFWQSLHITSSSVEHIYAQIMSENIENRLNFMPEQRVINNCGHIIKINAVVPKNDTAISASGGRAYEVSSSILPSHITCNGVGINKIETSYLVHAGTLPSSEGLRNAIPPESRQVSFAIISPDV”, the protein production result is reported as “not failed”.
With “MRLVIHGKNIDITDGIRSYLNQKIERATSHFQNVINEVDVHLSVARNRSTAPKQTAEVTVFVNGSVIRAEESSENLYASIDLVADKIARKLRKLKEKRQDKSRAKDTNSVVEPEVVTDLVGDRTPQLPEQVVRMKYFAMPPMTIQEALEHLEMVDHDFYVFRNRDTGEINVVYERNHGGYGVIQPRPTSNNHHHNTADAAAKATAKAGPLEHHHHHH” the entry was “not failed”.
Turning to “MLTLILAQVTTLDPARPQAEAVLAGGGRVLAVGTREELSALAPRAEVLDHRDLHLTPGLCDAHTHLVMYGASLSQLDVQGVRSVDEVRARLRERAAQTPAGEWIVGGGFLLSELGLSGYPTAADLDAVSPDHPVLLHSRDHHMIWVNSRALAAAGIHDQTPDPEGGHIVHPLGCLQENAQALVSERVPAPSESEWLAHARAGAQDLAARGYVSTHTMAFEDAAAPLALQTLAARGELPLRVWACLPHERLSAARSLGLSRVPGGLFQWGGVKFFADGALGSRTAWLHAPGFADGSGTGIALDSPDLILERGREALRLGLTPVTHAIGDRANTEVLDVYEQLRPEAEARGIRLRVEHAQHLRPEDLPRFRGLTASVQPVHLPADAAMIRELLPQREQTSYAFRSLKDAGAILAFGSDAPVAPPSVQGNFAAAVSRLGDDGLPLAPAEALTPDDVLWAYTRGPALAAGWDDEGWVKPGARAAFTLWNTIGGEARSLVL”, the protein production entry is recorded as “failed”.
With “MKVILVNGSPHKDGCTFTALEEVAKALNEEGIDTEFFHLGTKPLNGCIACGHCRKHQRCVFPDSVNEFLDLAQEADGFIFGSPVHYAAAGGAITSFLDRVFYTDSGSGKQAFYLKPAAAVVSARRAGTTASLDQLNRYFTIKEMPIISSKYWNMVHGNTPEEVRKDEEGLQIMRTLGRNMAWFLKCKEAGIRAGIPFPSQEEGLRTNFIRLEHHHHHH” the entry was “not failed”; with “MYAAVEHGPVLCSDSNILCLSWKGRVPKSEKEKPVCRRRYYEEGWLATGNGRGVVGVTFTSSHCRRDRSTPQRINFNLRGHNSEVVLVRWNEPYQKLATCDADGGIFVWIQYEGRWSVELVNDRGAQVSDFTWSHDGTQALISYRDGFVLVGSVSGQRHWSSEINLESQITCGIWTPDDQQVLFGTADGQVIVMDCHGRMLAHVLLHESDGILSMSWNYPIFLVEDSSESDTDSDDYSPPQDGPAAYPIPVQNTKPLLTVSFTSGDISLMNNYDDLSPTVIRSGLKEVVAQWCTQGDLLAVAGMEQQAQLSELPNGPLLKSAMVKFYNVRGEHIFTLDTLVQRPIISICWGHRDSRLLMASGPALYVVRVEHRVSSLQLLCQQAIASTLREDKDVNKLTLPPRLCSYLSTAFIPTIKPPIPDPNNMRDFVSYPSAGNERLHCTMKRTEDDPEVGGPCYTLYLEYLGGLVPILKGRRISKLRPEFVIMDPRTDSKSDEIYGNSLISTVIDSCNCSDSSDIELSDDWAAKKSPKISRSSKSPKLPRISIEARKSPKLPRAAQEISRSPRLPMRKPSMGSPSLTRREFPFEDITQVGSYN”, “failed”; with “MQNLDRDVVIVGAGPSGLTAARELKKAGLSVAVLEARDRVGGRTWTDTIDGAMLEIGGQWVSPDQTVLMELLDELGLKMYSRYRDGESVYIGADGKRTQYTGDTFPVNETTKAEMDKLVAILDELAAEIGPTEPWAHPKARELDTISFHHWLRQNSNDEEACNNIGLFIAGGMLTKPAHAFSALQAVLMAASAGSFSHLTDEDFILDKRVIGGMQQVSLLQAAELGDDVVLNSPVRTIKWDENGVSVVSERATVNARFVIMAVPPNLYSRVSFDPPLPRRQHQMHQHQSLGLVIKVHAVYDTPFWREEGLSGTGFSAGALVQEVYDNTNHGDSRGTLVGFVSDEKADAVFELSAEDRKKAILESIAGFLGDKALTPEVYYESDWGSEEWTRGAYASSYDLGGLHRYGKDQHANVGPIYWSSSDLAAEGYQHVDGAVRMGQATAARIVEANKLASVPVA”, “not failed”.
In the case of “MLLSHAFGLFTHPEDEWVSIKKEHEHPTRLYVAYVVVLAAIAPICAYISTAHFGWSIGSERLIKLTEISALQMSVLTYLAMLVGVFALGYAINWMAKTYGAKEEHVPSNGIALAAYSCTPLFLAGFALLYPVPWFNAVVFLAAACYGAWLMYDGLPIVMGIEKERAVMYGGALLTVALVILVSTRVGSVILWNLGLGPVFVSG” it was “failed”; in that of “TSTDAAGGDSYRVGINQLVQHPALDAATTGFKEAFEEAGVDVTFDEQNANGEQGTALTISQQFASDNLDLVLAVATPAAQATAQNITDIPVLFTAVTDAVSAELVDSNEAPGGNVTGTSDIAPIEQQLELLQQLVPDAKSIGIVYASGEVNSQVQVDEVTKAAEPLGLSVNTQTVTTVNEIQQAVEALGDVDVIYVPTDNMVVSGISSLVQVAEQKQIPVIGAESGTVEGGALATLGIDYTELGRQTGEMALRILQDGEDPATMPVETATEFTYVINEDAAERQGVEIPQEILDKAERV”, “failed”.
In the case of “MKTIDLADIQAFLYRESRLLDDKAWDAWLDCYRADAVFWMPSWDDADALVTDPQREISLIYYPNRQGLEDRVFRIKTERSSATVPDTRTSHNIANVERESADGDVHTVRFNWHTLSYRYKTVSSYFGMSRYAIDFSGDAPKIVSKYVVLKNDYINQLIDIYHI” it was “not failed”; in that of “MTFPSVALVVVYVGGLVILGFGMAKIVYVPMALYFDWLYRSICARHRYSVLSDRPLVSVIVPGYNEAVVITGCVESILASRYLRLEVILVDDGSTDETASIMEGLAQQYDRVRFLSQANAGKGAALNCGIAAALGDILMFVDADGVFAPDTLIHMLEGFDDPKVGAVCGDDRPVNLDRLQTMMLAILSHVGTGLVRRALSLMNCLPIVSGNIGAFRSDLVRELGGFHEDTLGEDLELTWRVYKAGYRVRFQPKALVYAESPSTMGGLWRQRVRWSRGLLQTLRLHSGMLGSRRYGMFGAFLVFNAITMVLIPILQLVVLALLPFLYVAGMGPVPAEVLAILGWLGVFVSLALIVFSVGLNRSWRDLRFLWTLPLWPFYSVFVGLALASAIVKEIRGSPARWNKLQRTGIKSVTATHSVTSTDVSQRQEAHA”, “failed”.
As to “MFISVLDLFKIGIGPSSSHTMGPMTAANVFRDHVDQLVSQTPDDLNYRVYCVLKGSLAFTGRGHATDRAVALGLHGHSPVSLAGEDVNALTAKLWATDTLQLTSGREIGFNPEDDIVFDKSDPLPQHPNGMIFYLLDEEGKKILSETFFSIGGGFICTLAEINQ”, the protein production result was “not failed”.
With “MRFKISLTTRLSLIFSAVMLTVWWLSSFILISTLNDYFDNQDRDFLTGKLQLTEEFLKTETFRNKTDIKSLSEKINDAMVGHNGLFISIKNMENEKIVELYAKNSVVPAVLLNKSGDILDYMIQTEENNTVYRSISRRVAVTPEQGKSKHVIITVATDTGYHTLLMDKLSTWLFWFNIGLVFISVFLGWLTTRIGLKPLREMTSLASSMTVHSLDQRLNPDLAPPEISETMQEFNNMFDRLEGAFRKLSDFSSDIAHELRTPVSNLMMQTQFALAKERDVSHYREILFANLEELKRLSRMTSDMLFLARSEHGLLRLDKHDVDLAAELNELRELFEPLADETGKTITVEGEGVVAGDSDMLRRAFSNLLSNAIKYSPDNTCTAIHLERDSDCVNVMITNTMSGQVPANLERLFDRFYRADSSRFYNTEGAGLGLSITRSIIHAHGGELSAEQQGREIVFKVRLLMD”, the protein production entry is reported as “failed”.
With “MFPFTHVHAFNKGNEEVYMDVENGKNGEGSVFRMPLHYPRYSKEDYQDMPEWKLDRVLADYGLSTYGDLAHKRDFAIGAFLWISTRNPKLYQEKSINSKLKKDTKSAHA” the entry was “failed”.
Regarding “MQINGKAPRNKDLEPHSFELWLNAAKTNLDKYEMALIITATLGLRRGEVMGLRNESIKISHDQINDADVAQISIDMQRNTNELNGGPLKTKSSYRTIWAFGKTVDHLKYAMITADNLRQRNNIQAEKHWLWLNNDGNPLHPTHLNRLMRRVSNRSGVEVYPHLLRHYFATQAIAANKPQIDVMHYLGHKNLQMTADYTRSTKAASLNVFNSIDKFLLEHHHHHH”, the protein production entry was “not failed”.
